# Source: the supplement of paper PMC10724198
# ± gives the standard deviation of the averaged measurements.
# Test system: Saccharomyces cerevisiae
# Experiment: protein stability index of tFT-peptide fusion (C-terminal peptide) (PSI (0-1 scale)); higher = more stable (slower turnover)
# Conditions: genetic background: wild type; temperature: 30 C
# Method: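 Multiplexed protein stability (MPS) profiling in S. cerevisiae. Random 12-aa peptides (tFT-X12 library) are fused to the C-terminus of a sfGFP-mCherry tandem fluorescent timer, after mCherry and a GGGS linker. Cells are FACS-sorted into 8 mCherry/sfGFP bins and deep-sequenced. The protein stability index (PSI) is the read-weighted bin average, scaled from 0 (unstable) to 1 (stable). Only peptides with >10 reads are reported; cells were grown at 30 °C in SC-His with glucose.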
# 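Note: PSI is a weighted mean of sequencing reads over stability bins, variants kept only with over 10 reads, mCherry proximal and sfGFP distal, peptide attached via GGGS linker.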
row,Sequence,protein stability index
1,FNEKNKKSTLER,0.652 ± 0.043
2,FNIRDKVKRGAL,0.666 ± 0.008
3,FNTRDTFLYTCR,0.789 ± 0.11
4,FPALPPPLPQPP,0.585 ± 0.031
5,FPCAPFLLLDVS,0.663 ± 0.0029
6,FPDPTPNLRPPP,0.636 ± 0.034
7,FPFFLPMASLFC,0.559 ± 0.018
8,FPFWRLYNLELL,0.492 ± 0.022
9,FPGLFLFVLLPG,0.505 ± 0.013
10,FPGVGARAGVGV,0.697 ± 0.027
11,FPHPPPGPRALH,0.691 ± 0.16
12,FPLSLCPHRPSL,0.716 ± 0.034
13,FPMHFRVRCRPV,0.62 ± 0.045
14,FPPPLPPRLPPP,0.702 ± 0.0061
15,FPPPPPPLTVLP,0.728 ± 0.054
16,FPPPPTHPASSP,0.691 ± 0.027
17,FPRHPPPFPRPT,0.681 ± 0.031
18,FPVLFSCGYFPL,0.792 ± 0.04
19,FPWISPCCFTFP,0.64 ± 0.042
20,FPYLLCPLFPWP,0.665 ± 0.015
21,FQGKRTKQEGVK,0.692 ± 0.071
22,FRASLPRVPFSS,0.695 ± 0.11
23,FRDVRFSSRVPF,0.786 ± 0.07
24,FRGATRPHSGRS,0.676 ± 0.048
25,FRIFGFLVCPIM,0.6257 ± 0.0038
26,FRLLFSFFWGYV,0.595 ± 0.033

row,Sequence,protein stability index
1,FRLLLLKIKSEQ,0.619 ± 0.034
2,FRMLSRMKEILD,0.634 ± 0.052
3,FRRARRLRWFGG,0.637 ± 0.03
4,FRRLVTGVLSIF,0.559 ± 0.028
5,FRRWHPPFFLFP,0.713 ± 0.04
6,FRWLLVAGGWGE,0.486 ± 0.024
7,FRYRLACRPIYQ,0.616 ± 0.038
8,FSAFWLACFFGV,0.717 ± 0.062
9,FSEKLLRSSVYR,0.639 ± 0.19
10,FSFNGMTRNCLR,0.715 ± 0.014
11,FSGGCSVHGLIS,0.612 ± 0.071
12,FSGSSFNGLCSF,0.701 ± 0.018
13,FSLHTSLLPSVP,0.787 ± 0.14
14,FSLPPAASDFPS,0.685 ± 0.015
15,FSLPSVPCATYR,0.678 ± 0.043
16,FSSRLVFFFAAP,0.667 ± 0.036
17,FSSSMFPPPLFV,0.662 ± 0.0056
18,FSTTSFPPSFFP,0.711 ± 0.042
19,FSVLSPHPLHPL,0.753 ± 0.093
20,FSVPRFVSISGI,0.6 ± 0.034
21,FSVVGVFNIYGM,0.6214 ± 0.0023
22,FTGACRCLDGPR,0.669 ± 0.055
23,FTLLLFVPSLGS,0.618 ± 0.0082
24,FTPSSLRGSLLA,0.687 ± 0.021
25,FTQDYRRKTMSH,0.604 ± 0.064
26,FTYFLPPPALCS,0.521 ± 0.02

row,Sequence,protein stability index
1,FVEIRGGGDRRM,0.706 ± 0.013
2,FVFPFHSRGVSQ,0.647 ± 0.015
3,FVGACCGGSVEG,0.721 ± 0.036
4,FVGFVFSSAVGL,0.684 ± 0.011
5,FVHEHQPRHEST,0.677 ± 0.028
6,FVIPLLRWGRTP,0.663 ± 0.053
7,FVPSSVFLFCLG,0.545 ± 0.023
8,FVRWGWAVMLGG,0.571 ± 0.013
9,FVVRGVFVSGFW,0.582 ± 0.019
10,FWIRGVTRCVWC,0.724 ± 0.053
11,FWPPLTNLCTLL,0.687 ± 0.011
12,FWVESGVFFFRP,0.667 ± 0.017
13,FYRTRQSASPNV,0.688 ± 0.046
14,GAARGWLPGAGW,0.727 ± 0.04
15,GADGGLVSLGVS,0.743 ± 0.026
16,GAECVSGWGGET,0.709 ± 0.035
17,GAFFPGPVLFLT,0.517 ± 0.013
18,GAFLPLTCDIIC,0.598 ± 0.013
19,GAGASEGEPMED,0.7 ± 0.046
20,GAGCRDSSRRRT,0.687 ± 0.037
21,GAGGAGAGAGGG,0.639 ± 0.0092
22,GAGRYVLNPCCS,0.678 ± 0.034
23,GAGVCEQGLALA,0.649 ± 0.091
24,GAHRRDTYTVIG,0.682 ± 0.011
25,GAIVLMSCRNVI,0.634 ± 0.04
26,GAKGRGKERRGK,0.666 ± 0.051

row,Sequence,protein stability index
1,GAKQSSKRPRAS,0.719 ± 0.028
2,GALEMNVCVPWL,0.65 ± 0.017
3,GALFRRACSLLF,0.697 ± 0.039
4,GALGGDSGKGGG,0.677 ± 0.15
5,GALSDSLRVYTP,0.688 ± 0.041
6,GAPLFTYVIVRR,0.621 ± 0.07
7,GAPTYTGEPRTP,0.742 ± 0.032
8,GAPWPLAVVAGP,0.5995 ± 0.0013
9,GASGRKPGCDRL,0.67 ± 0.062
10,GASLFSEVMARE,0.688 ± 0.027
11,GASPTNSPLIYT,0.679 ± 0.0077
12,GASSPVEVGAAG,0.695 ± 0.022
13,GASVSCQWFCGA,0.694 ± 0.015
14,GATLWGMAWGAR,0.682 ± 0.012
15,GAVGSPVEFGGR,0.688 ± 0.063
16,GAVQGVALRGGS,0.744 ± 0.1
17,GAVRWGGAGVGV,0.73 ± 0.063
18,GAWWVHGRRVGR,0.738 ± 0.046
19,GAYKVPSYGINY,0.695 ± 0.021
20,GCAFVVLLSRGF,0.604 ± 0.083
21,GCCAPWTFDDDL,0.7117 ± 0.0065
22,GCFYYWSVNVSY,0.5599 ± 0.0036
23,GCGAGEVWGVGG,0.674 ± 0.014
24,GCGGRARAGAGG,0.697 ± 0.089
25,GCGGSREAVVNG,0.662 ± 0.042
26,GCGLVGGRWFRW,0.67 ± 0.034

row,Sequence,protein stability index
1,GCIGGMAPWGGL,0.664 ± 0.0097
2,GCIPFELLECGF,0.663 ± 0.071
3,GCLGVRMFRVGG,0.59 ± 0.015
4,GCMVFTGGKRVL,0.672 ± 0.03
5,GCPIYSIIQIHR,0.66818 ± 0.00019
6,GCRGVVVDGCGW,0.593 ± 0.0073
7,GCRGVWGWVGRG,0.74 ± 0.084
8,GCSFVLCRGSNA,0.675 ± 0.034
9,GCSNESVGVISG,0.644 ± 0.024
10,GCVGGGDWRFNV,0.566 ± 0.027
11,GCVHDLGVISCQ,0.639 ± 0.011
12,GCVVSGCGAGVV,0.5755 ± 0.0057
13,GCWAFGWLLQYS,0.574 ± 0.014
14,GDERGAGRVGGS,0.626 ± 0.0064
15,GDGVIVEVEGVN,0.675 ± 0.071
16,GDLKWVGLGVQR,0.687 ± 0.03
17,GDMVRVSYRGRR,0.674 ± 0.053
18,GDPVKCSNSKDK,0.685 ± 0.012
19,GDSPLQAPPSLL,0.708 ± 0.1
20,GDVGGLFYVSLL,0.7569 ± 0.0027
21,GDVSYRWLRACT,0.6576 ± 0.00085
22,GDWQGRADGAVI,0.671 ± 0.071
23,GEAGGEESEEGY,0.676 ± 0.042
24,GECAELSSVGGG,0.664 ± 0.035
25,GEGGENRRNGTV,0.7 ± 0.12
26,GEGHVRCCFSLR,0.699 ± 0.013

row,Sequence,protein stability index
1,GEGRGDGEEGTG,0.679 ± 0.035
2,GEISLSGRYRAV,0.691 ± 0.032
3,GEKDGAVGRGEV,0.614 ± 0.02
4,GERAGGPGRGRE,0.683 ± 0.069
5,GERGAYVVGVRW,0.782 ± 0.019
6,GEVGRGGEWGLD,0.711 ± 0.077
7,GEVSSIVHIGPK,0.684 ± 0.03
8,GEWCGGVAVFWR,0.693 ± 0.028
9,GEWIDVSGCRRG,0.805 ± 0.28
10,GEYRECVSWAGG,0.721 ± 0.07
11,GFALSFCFCFPL,0.558 ± 0.029
12,GFDVGKRGRFGL,0.635 ± 0.09
13,GFFFALGPPFSG,0.695 ± 0.019
14,GFGFWRNLFYWS,0.657 ± 0.048
15,GFKIEVIQASGS,0.683 ± 0.025
16,GFPASVCGCMLW,0.651 ± 0.047
17,GFRCTVWGRAVI,0.637 ± 0.052
18,GFSDCGLYRVSC,0.713 ± 0.0097
19,GFSRLTPDQRQK,0.7373 ± 0.0063
20,GFTGWGRRGLGG,0.716 ± 0.076
21,GFTQLQNERVDG,0.785 ± 0.1
22,GFVVGVGIVSWG,0.6108 ± 0.0029
23,GFWWGCGGFCFC,0.685 ± 0.023
24,GFYAWAISYLWQ,0.509 ± 0.0086
25,GGAGHGAGAVWG,0.71 ± 0.037
